This data set deals with Escherichia coli TOP10. Put plainly: shrunken log2 fold change of peptide-encoding DNA abundance (4.5 h post-induction vs induction); higher = less antimicrobial activity (less host growth inhibition). The following applies: time post-induction: 4.5 h; library: site-saturation at positions 5, 18, 19, 20.
On to RRIRYRPPRLPRPRPRPSFTPRP, for which the “shrunken log2 fold change” value was -0.91.

For RRIRLRPPRLPRPRPRPHYYPRP, the “shrunken log2 fold change” value is -0.438.

For RRIRFRPPRLPRPRPRPFHWPRP, the “shrunken log2 fold change” value is -0.336.

With RRIRSRPPRLPRPRPRPARMPRP, the “shrunken log2 fold change” value was -0.0672.

As for RRIRKRPPRLPRPRPRPMMDPRP, the “shrunken log2 fold change” value turned out to be 0.0443.

In the case of RRIRTRPPRLPRPRPRPDFMPRP, the “shrunken log2 fold change” value was -0.15.

With RRIRHRPPRLPRPRPRPERFPRP, the “shrunken log2 fold change” value was -0.0122.

With RRIRGRPPRLPRPRPRPNSEPRP, the “shrunken log2 fold change” value is 0.295.

With RRIRCRPPRLPRPRPRPLCNPRP, the “shrunken log2 fold change” value was -0.244.

Regarding RRIRGRPPRLPRPRPRPGEHPRP, the “shrunken log2 fold change” value is 0.587.

In the case of RRIRTRPPRLPRPRPRPMVAPRP, the “shrunken log2 fold change” value worked out at 0.0166.

With RRIRYRPPRLPRPRPRPWYKPRP, the “shrunken log2 fold change” value is -0.0225.

On to RRIRSRPPRLPRPRPRPRHTPRP, for which the “shrunken log2 fold change” value is 0.0335.

Take RRIRVRPPRLPRPRPRPSYLPRP: the “shrunken log2 fold change” value was 0.753.

Regarding RRIRRRPPRLPRPRPRPSSKPRP, the “shrunken log2 fold change” value is -0.145.

As to RRIRQRPPRLPRPRPRPSSAPRP, the “shrunken log2 fold change” value turned out to be 2.99.

RRIRCRPPRLPRPRPRPFVEPRP: the “shrunken log2 fold change” value is -0.507.

Regarding RRIRQRPPRLPRPRPRPGHEPRP, the “shrunken log2 fold change” value is 0.104.

With RRIRPRPPRLPRPRPRPERCPRP, the “shrunken log2 fold change” value came out at 0.271.

In the case of RRIRVRPPRLPRPRPRPPRLPRP, the “shrunken log2 fold change” value was 0.294.

In the case of RRIRHRPPRLPRPRPRPFTAPRP, the “shrunken log2 fold change” value is -0.559.

Take RRIRQRPPRLPRPRPRPKKIPRP: the “shrunken log2 fold change” value was -0.0759.

Turning to RRIRGRPPRLPRPRPRPMWIPRP, the “shrunken log2 fold change” value stood at 0.218.

As for RRIRGRPPRLPRPRPRPRMSPRP, the “shrunken log2 fold change” value worked out at 0.28.

RRIRGRPPRLPRPRPRPRFFPRP: the “shrunken log2 fold change” value worked out at 0.741.

As to RRIRRRPPRLPRPRPRPEFEPRP, the “shrunken log2 fold change” value amounted to 0.37.

As to RRIRWRPPRLPRPRPRPSFKPRP, the “shrunken log2 fold change” value is -0.226.

For RRIRCRPPRLPRPRPRPGWDPRP, the “shrunken log2 fold change” value turned out to be 0.257.

For the sequence RRIRHRPPRLPRPRPRPIHIPRP, the “shrunken log2 fold change” value was -0.733.

For RRIRWRPPRLPRPRPRPGFFPRP, the “shrunken log2 fold change” value was determined as 0.26.

For the sequence RRIRGRPPRLPRPRPRPYYQPRP, the “shrunken log2 fold change” value was -0.537.

As to RRIRHRPPRLPRPRPRPGQEPRP, the “shrunken log2 fold change” value was -0.00664.

Consider RRIRMRPPRLPRPRPRPFVTPRP, for which the “shrunken log2 fold change” value was -0.269.

As for RRIRHRPPRLPRPRPRPNSEPRP, the “shrunken log2 fold change” value was -0.795.

For RRIRARPPRLPRPRPRPFDGPRP, the “shrunken log2 fold change” value was -0.22.

As to RRIRLRPPRLPRPRPRPLCKPRP, the “shrunken log2 fold change” value was -0.398.

In the case of RRIRKRPPRLPRPRPRPKDEPRP, the “shrunken log2 fold change” value is 0.0833.

On to RRIRHRPPRLPRPRPRPILLPRP, for which the “shrunken log2 fold change” value was -0.211.

On to RRIRWRPPRLPRPRPRPRPPPRP, for which the “shrunken log2 fold change” value was determined as 1.11.

In the case of RRIRKRPPRLPRPRPRPDRIPRP, the “shrunken log2 fold change” value was -0.00844.

For RRIRIRPPRLPRPRPRPYQWPRP, the “shrunken log2 fold change” value was -0.316.

On to RRIRPRPPRLPRPRPRPSKWPRP, for which the “shrunken log2 fold change” value is -0.242.

Turning to RRIRMRPPRLPRPRPRPSPNPRP, the “shrunken log2 fold change” value turned out to be 0.0416.

RRIRKRPPRLPRPRPRPKYDPRP: the “shrunken log2 fold change” value is 0.38.

Consider RRIRSRPPRLPRPRPRPIPVPRP, for which the “shrunken log2 fold change” value was -0.208.

With RRIRNRPPRLPRPRPRPIDCPRP, the “shrunken log2 fold change” value is -0.248.

Turning to RRIRYRPPRLPRPRPRPGMMPRP, the “shrunken log2 fold change” value is -0.426.

On to RRIRGRPPRLPRPRPRPVKRPRP, for which the “shrunken log2 fold change” value was 0.248.

RRIRLRPPRLPRPRPRPEMDPRP: the “shrunken log2 fold change” value is -0.059.

On to RRIRERPPRLPRPRPRPMMDPRP, for which the “shrunken log2 fold change” value was -0.0298.

On to RRIRGRPPRLPRPRPRPNIYPRP, for which the “shrunken log2 fold change” value was -0.13.

For RRIRTRPPRLPRPRPRPYWPPRP, the “shrunken log2 fold change” value is -0.424.

Regarding RRIRERPPRLPRPRPRPWTLPRP, the “shrunken log2 fold change” value is -0.407.

On to RRIRHRPPRLPRPRPRPDPSPRP, for which the “shrunken log2 fold change” value is -0.00848.

RRIRDRPPRLPRPRPRPLYCPRP: the “shrunken log2 fold change” value is -0.333.

As to RRIRIRPPRLPRPRPRPSHGPRP, the “shrunken log2 fold change” value came out at 0.09.

On to RRIRCRPPRLPRPRPRPQIEPRP, for which the “shrunken log2 fold change” value is -0.335.

For the sequence RRIRWRPPRLPRPRPRPVKKPRP, the “shrunken log2 fold change” value stood at 0.29.

Take RRIRCRPPRLPRPRPRPNGAPRP: the “shrunken log2 fold change” value was -0.0129.

With RRIRVRPPRLPRPRPRPYEMPRP, the “shrunken log2 fold change” value was -0.311.

In the case of RRIRPRPPRLPRPRPRPEMYPRP, the “shrunken log2 fold change” value is -0.269.

Take RRIRQRPPRLPRPRPRPAWRPRP: the “shrunken log2 fold change” value was determined as 0.497.

As to RRIRERPPRLPRPRPRPYLGPRP, the “shrunken log2 fold change” value is -0.12.

Take RRIRGRPPRLPRPRPRPVRKPRP: the “shrunken log2 fold change” value worked out at 1.72.

For RRIRFRPPRLPRPRPRPAICPRP, the “shrunken log2 fold change” value turned out to be 0.00851.

For RRIRHRPPRLPRPRPRPRWWPRP, the “shrunken log2 fold change” value came out at 0.00789.

For RRIRCRPPRLPRPRPRPNDCPRP, the “shrunken log2 fold change” value was -0.0147.

Regarding RRIRQRPPRLPRPRPRPKYVPRP, the “shrunken log2 fold change” value is 0.178.

As to RRIRPRPPRLPRPRPRPYPWPRP, the “shrunken log2 fold change” value is -0.345.

With RRIRDRPPRLPRPRPRPKKCPRP, the “shrunken log2 fold change” value is 0.0235.

As for RRIRARPPRLPRPRPRPYCSPRP, the “shrunken log2 fold change” value is 0.0743.

As to RRIRNRPPRLPRPRPRPLTMPRP, the “shrunken log2 fold change” value was -0.429.

For RRIRPRPPRLPRPRPRPTAGPRP, the “shrunken log2 fold change” value came to 0.252.

Consider RRIRRRPPRLPRPRPRPYIRPRP, for which the “shrunken log2 fold change” value was -0.715.

In the case of RRIRMRPPRLPRPRPRPHMLPRP, the “shrunken log2 fold change” value is -0.245.

Consider RRIRMRPPRLPRPRPRPSCFPRP, for which the “shrunken log2 fold change” value was -0.145.

RRIRFRPPRLPRPRPRPGVMPRP: the “shrunken log2 fold change” value is 0.238.

Regarding RRIRDRPPRLPRPRPRPDADPRP, the “shrunken log2 fold change” value stood at 0.0193.

Take RRIRLRPPRLPRPRPRPEEYPRP: the “shrunken log2 fold change” value worked out at 0.0401.

Turning to RRIRVRPPRLPRPRPRPAPKPRP, the “shrunken log2 fold change” value amounted to 0.438.

For RRIRQRPPRLPRPRPRPMCRPRP, the “shrunken log2 fold change” value was -0.0374.

With RRIRVRPPRLPRPRPRPRRGPRP, the “shrunken log2 fold change” value amounted to 0.579.

For the sequence RRIRKRPPRLPRPRPRPCKQPRP, the “shrunken log2 fold change” value was 0.0173.

Regarding RRIRERPPRLPRPRPRPVCGPRP, the “shrunken log2 fold change” value worked out at 0.243.

RRIRKRPPRLPRPRPRPDDPPRP: the “shrunken log2 fold change” value worked out at 0.237.

Take RRIRFRPPRLPRPRPRPDPTPRP: the “shrunken log2 fold change” value is 0.0215.

With RRIRIRPPRLPRPRPRPYWKPRP, the “shrunken log2 fold change” value was -0.0289.

For the sequence RRIRVRPPRLPRPRPRPFAKPRP, the “shrunken log2 fold change” value was -0.307.

In the case of RRIRYRPPRLPRPRPRPWVVPRP, the “shrunken log2 fold change” value was -0.264.

Take RRIRGRPPRLPRPRPRPRGYPRP: the “shrunken log2 fold change” value came out at 0.382.

Take RRIRVRPPRLPRPRPRPWGLPRP: the “shrunken log2 fold change” value was -0.159.

The record behind these values is the supplement of paper PMC9112550, “Optimization of the antimicrobial peptide Bac7 by deep mutational scanning” (BMC Biology, 2022).
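Note: peptides expressed intracellularly from a pBAD plasmid library in pooled LB shake-flask culture, induced with 0.3% L-arabinose, DNA abundance read by NGS, three biological replicates, DESeq2 with apeglm shrinkage.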
